Key:
[1] = target: M3 protein (Streptococcus pyogenes) (UniProt Q54841)
[2] = target: M3 protein (Streptococcus pyogenes) (UniProt Q54841); remark: listed apart in the source
[3] = target: M3 protein (Streptococcus pyogenes) (UniProt Q54841); remark: listed apart in the source
M5 protein = target: T1, M5 protein (Streptococcus pyogenes, UniProt P02977 43-461); experiment: cell-based or functional assay
T1 sequence: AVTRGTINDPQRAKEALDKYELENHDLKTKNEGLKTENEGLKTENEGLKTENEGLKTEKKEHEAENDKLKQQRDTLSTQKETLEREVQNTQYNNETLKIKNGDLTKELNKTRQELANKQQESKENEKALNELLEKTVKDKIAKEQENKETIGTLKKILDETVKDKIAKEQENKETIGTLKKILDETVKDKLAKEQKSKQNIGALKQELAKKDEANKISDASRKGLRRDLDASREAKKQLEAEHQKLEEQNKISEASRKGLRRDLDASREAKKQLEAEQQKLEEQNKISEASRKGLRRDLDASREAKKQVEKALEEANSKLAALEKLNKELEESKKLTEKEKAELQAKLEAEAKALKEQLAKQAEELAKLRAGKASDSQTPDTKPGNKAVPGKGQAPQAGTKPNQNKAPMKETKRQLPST

M1 protein = target: T2, M1 protein (Streptococcus pyogenes, UniProt Q99XV0 1-484); experiment: cell-based or functional assay
T2 sequence: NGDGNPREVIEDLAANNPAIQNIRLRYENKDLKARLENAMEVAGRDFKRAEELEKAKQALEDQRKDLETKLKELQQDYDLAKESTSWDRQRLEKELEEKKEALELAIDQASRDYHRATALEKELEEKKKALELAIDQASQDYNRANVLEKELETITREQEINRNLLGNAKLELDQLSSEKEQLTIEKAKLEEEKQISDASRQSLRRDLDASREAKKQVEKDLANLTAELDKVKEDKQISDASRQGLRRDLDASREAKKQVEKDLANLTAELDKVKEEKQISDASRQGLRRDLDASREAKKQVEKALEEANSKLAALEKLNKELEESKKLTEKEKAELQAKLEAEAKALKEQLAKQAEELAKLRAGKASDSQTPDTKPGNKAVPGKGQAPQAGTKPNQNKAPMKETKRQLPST

Molecule: human fibrinogen (from UniProt P02671 36-866; P02675 45-491; P02679 27-453) (natural protein)
- platelet-monocyte complex formation: percentage of monocytes positive for CD61, flow cytometry of whole blood, median of 10 donors (background 4%) [1]: 17%
- platelet-neutrophil complex formation: percentage of neutrophils positive for CD61, flow cytometry of whole blood, median of 10 donors (background 18%) [1]: 53%
- platelet activation: percentage of platelets positive for CD62P, flow cytometry of platelet-rich plasma, median of 10 donors (background 3%) [2]: 55%
- monocyte activation: fold increase of CD11b median fluorescence intensity above background, flow cytometry of whole blood, 10 donors [3]: 3 fold
- neutrophil activation: fold increase of CD11b median fluorescence intensity above background, flow cytometry of whole blood, 10 donors [3]: 5 fold

B1: human fibrinogen (natural protein)
chain 1: GPRVVERHQSACKDSDWPFCSDEDWNYKCPSGCRMKGLIDEVNQDFTNRINKLKNSLFEYQKNNKDSHSLTTNIMEILRGDFSSANNRDNTYNRVSEDLRSRIEVLKRKVIEKVQHIQLLQKNVRAQLVDMKRLEVDIDIKIRSCRGSCSRALAREVDLKDYEDQQKQLEQVIAKDLLPSRDRQHLPLIKMKPVPDLVPGNFKSQLQKVPPEWKALTDMPQMRMELERPGGNEITRGGSTSYGTGSETESPRNPSSAGSWNSGSSGPGSTGNRNPGSSGTGGTATWKPGSSGPGSTGSWNSGSSGTGSTGNQNPGSPRPGSTGTWNPGSSERGSAGHWTSESSVSGSTGQWHSESGSFRPDSPGSGNARPNNPDWGTFEEVSGNVSPGTRREYHTEKLVTSKGDKELRTGKEKVTSGSTTTTRRSCSKTVTKTVIGPDGHKEVTKEVVTSEDGSDCPEAMDLGTLSGIGTLDGFRHRHPDEAAFFDTASTGKTFPGFFSPMLGEFVSETESRGSESGIFTNTKESSSHHPGIAEFPSRGKSSSYSKQFTSSTSYNRGDSTFESKSYKMADEAGSEADHEGTHSTKRGHAKSRPVRDCDDVLQTHPSGTQSGIFNIKLPGSSKIFSVYCDQETSLGGWLLIQQRMDGSLNFNRTWQDYKRGFGSLNDEGEGEFWLGNDYLHLLTQRGSVLRVELEDWAGNEAYAEYHFRVGSEAEGYALQVSSYEGTAGDALIEGSVEEGAEYTSHNNMQFSTFDRDADQWEENCAEVYGGGWWYNNCQAANLNGIYYPGGSYDPRNNSPYEIENGVVWVSFRGADYSLRAVRMKIRPLVTQ
chain 2: GHRPLDKKREEAPSLRPAPPPISGGGYRARPAKAAATQKKVERKAPDAGGCLHADPDLGVLCPTGCQLQEALLQQERPIRNSVDELNNNVEAVSQTSSSSFQYMYLLKDLWQKRQKQVKDNENVVNEYSSELEKHQLYIDETVNSNIPTNLRVLRSILENLRSKIQKLESDVSAQMEYCRTPCTVSCNIPVVSGKECEEIIRKGGETSEMYLIQPDSSVKPYRVYCDMNTENGGWTVIQNRQDGSVDFGRKWDPYKQGFGNVATNTDGKNYCGLPGEYWLGNDKISQLTRMGPTELLIEMEDWKGDKVKAHYGGFTVQNEANKYQISVNKYRGTAGNALMDGASQLMGENRTMTIHNGMFFSTYDRDNDGWLTSDPRKQCSKEDGGGWWYNRCHAANPNGRYYWGGQYTWDMAKHGTDDGVVWMNWKGSWYSMRKMSMKIRPFFPQQ
chain 3: YVATRDNCCILDERFGSYCPTTCGIADFLSTYQTKVDKDLQSLEDILHQVENKTSEVKQLIKAIQLTYNPDESSKPNMIDAATLKSRKMLEEIMKYEASILTHDSSIRYLQEIYNSNNQKIVNLKEKVAQLEAQCQEPCKDTVQIHDITGKDCQDIANKGAKQSGLYFIKPLKANQQFLVYCEIDGSGNGWTVFQKRLDGSVDFKKNWIQYKEGFGHLSPTGTTEFWLGNEKIHLISTQSAIPYALRVELEDWNGRTSTADYAMFKVGPEADKYRLTYAYFAGGDAGDAFDGFDFGDDPSDKFFTSHNGMQFSTWDNDNDKFEGNCAEQDGSGWWMNKCHAGHLNGVYYQGGTYSKASTPNGYDNGIIWATWKTRWYSMKKTTMKIIPFNRLTIGEGQQHHLGGAKQVRPEHPAETEYDSLYPEDDL
- monocyte activation: fold increase of CD11b median fluorescence intensity above background, flow cytometry of whole blood, 10 donors (M5 protein): 4 fold
- neutrophil activation: fold increase of CD11b median fluorescence intensity above background, flow cytometry of whole blood, 10 donors (M5 protein): 9 fold
- monocyte activation: fold increase of CD11b median fluorescence intensity above background, flow cytometry of whole blood, 10 donors (M1 protein): 7 fold
- neutrophil activation: fold increase of CD11b median fluorescence intensity above background, flow cytometry of whole blood, 10 donors (M1 protein): 14 fold
